In patent US12428633B2, “Inducible dimerization of recombinases” (TRUSTEES OF BOSTON UNIVERSITY, priority 2016, dated 2025):

Legend:
[1] = tested on: pCAG-FRT-Neo-FRT-GFP reporter; assay: Gibberellin ester (GIB)-induced split-Flp rejoinder, GFP reporter; format: cell-based, human; conditions: GAI/GID1 CIDD pair; with vs without GIB
Procedure: Full length FlpO and split Flp vectors were tested for induction of recombinase activity on a pCAG-FRT-Neo-FRT-GFP reporter with and without the presence of gibberellin ester (GIB).
FIGS. 43A-43E show results of gene expression of different split-recombinase Flp (SEQ ID NO: 1) or B3 fragments (SEQ ID NO: 19). […] FIGS. 43B-43E show the GFP expression levels of different amino acid residue of split sites (S) of Flp amino acid sequence (top; shown in blue) and amino acid residue of split sites (S) of B3 amino acid sequence (below, shown in orange).
DNA was transfected into the human embryonic kidney cell line (HEK293FT) using a polyethylenimine (PEI) protocol. Cells were plated onto 48-(2504) or 96-well (1004) plates the day prior to transfection (200,000 cells/mL), such that the cells were 50-70% confluent the day of transfection. Cells were kept in a humidified incubator at 37° C. and 5% CO2 and maintained in DMEM medium (Corning) with 10% Heat Inactivated Fetal Bovine Serum (Life Technologies), 50 U.I./mL penicillin/50 μg/mL streptomycin (Corning), 2 mM glutamine (Corning) and 1 mM sodium pyruvate (Lonza). PEI stocks were made from linear polyethylenimine (Polysciences 23966-2) and were dissolved at a concentration of 0.323 g/L in deionized water with the assistance of concentrated hydrochloric acid and sodium hydroxide and then filtered sterilized (0.24 μm). PEI stocks were stored at −80° C. until use and warmed to room temperature prior to usage. For 48-well plate transfections, DNA (1000 ng, 50 ng/4) was dissolved and brought up to a volume of 50 μL using 0.15 M sodium chloride (NaCl, Fisher Scientific). DNA-NaCl solutions were then mixed with 50 μL of a PEI-NaCl mixture (8 uL PEI: 42 uL NaCl). These solutions were then incubated at room temperature for ten minutes and 25 μL was carefully dropped into individual wells of HEK293FT cells (250 ng DNA/well). Similarly, for 96-well plate transfections, DNA (500 ng, 50 ng/4) was dissolved and brought up to a volume of 25 μL using 0.15 M sodium chloride (NaCl). DNA-NaCl solutions were then mixed with 25 μL of a PEI-NaCl (4 uL PEI: 21 uL NaCl) mixture. These solutions were then incubated at room temperature for ten minutes and 10 μL was carefully dropped into individual wells of HEK293FT cells (100 ng DNA/well). Electronic space-adjustable multichannel pipettors (Integra Biosciences) were utilized throughout the process for rapid aspiration and dispensing of molecular and cellular reagents. […]
(§1) Two days post-transfection and after trypsinization (0.05% Trypsin/0.53 mM EDTA, Corning) and resuspension, all HEK293FT cell populations were analyzed using a Becton Dickinson (BD) LSRFortessa SORP flow cytometer with HTS. […]

[2] = tested on: VloxP; assay: Gibberellin ester (GIB)-induced split-VCre rejoinder, GFP reporter; format: cell-based, human; conditions: GAI/GID1 CIDD pair; with vs without GIB
Procedure: FIGS. 42A-42B show results of gene expression of different split-recombinase Cre (SEQ ID NO: 74) or VCre fragments (SEQ ID NO: 16).
DNA was transfected into the human embryonic kidney cell line (HEK293FT) using a polyethylenimine (PEI) protocol. Cells were plated onto 48-(2504) or 96-well (1004) plates the day prior to transfection (200,000 cells/mL), such that the cells were 50-70% confluent the day of transfection. Cells were kept in a humidified incubator at 37° C. and 5% CO2 and maintained in DMEM medium (Corning) with 10% Heat Inactivated Fetal Bovine Serum (Life Technologies), 50 U.I./mL penicillin/50 μg/mL streptomycin (Corning), 2 mM glutamine (Corning) and 1 mM sodium pyruvate (Lonza). PEI stocks were made from linear polyethylenimine (Polysciences 23966-2) and were dissolved at a concentration of 0.323 g/L in deionized water with the assistance of concentrated hydrochloric acid and sodium hydroxide and then filtered sterilized (0.24 μm). PEI stocks were stored at −80° C. until use and warmed to room temperature prior to usage. For 48-well plate transfections, DNA (1000 ng, 50 ng/4) was dissolved and brought up to a volume of 50 μL using 0.15 M sodium chloride (NaCl, Fisher Scientific). DNA-NaCl solutions were then mixed with 50 μL of a PEI-NaCl mixture (8 uL PEI: 42 uL NaCl). These solutions were then incubated at room temperature for ten minutes and 25 μL was carefully dropped into individual wells of HEK293FT cells (250 ng DNA/well). Similarly, for 96-well plate transfections, DNA (500 ng, 50 ng/4) was dissolved and brought up to a volume of 25 μL using 0.15 M sodium chloride (NaCl). DNA-NaCl solutions were then mixed with 25 μL of a PEI-NaCl (4 uL PEI: 21 uL NaCl) mixture. These solutions were then incubated at room temperature for ten minutes and 10 μL was carefully dropped into individual wells of HEK293FT cells (100 ng DNA/well). Electronic space-adjustable multichannel pipettors (Integra Biosciences) were utilized throughout the process for rapid aspiration and dispensing of molecular and cellular reagents. A Countess II image-based cell counter (Life Technologies) was used for measuring human cell population densities.
Rapamycin analog (Clontech A/C heterodimerizer AP21967, 0.5 mM) was used as a 1000× stock for chemical induction experiments. […]
as §1

Row | Molecule | GFP expression of split-Flp by split site (S) [1] | GFP expression of split-VCre by split site (S) [2]
1 | Flp 27: Flp (SEQ ID NO: 1) split into aa 1-27 and 28-423, fused to CIDD pair (protein, fused to CIDD pair) chain 1: MSQFDILCKTPPKVLVRQFVERFERPS chain 2: GEKIASCAAELTYLCWMITHNGTAIKRATFMSYNTIISNSLSFDIVNKSLQFKYKTQKATILEASLKKLIPAWEFTIIPYNGQKHQSDITDIVSSLQLQFESSEEADKGNSHSKKMLKALLSEGESIWEITEKILNSFEYTSRFTKTKTLYQFLFLATFINCGRFSDIKNVDPKSFKLVQNKYLGVIIQCLVTETKTSVSRHIYFFSARGRIDPLVYLDEFLRNSEPVLKRVNRTGNSSSNKQEYQLLKDNLVRSYNKALKKNAPYPIFAIKNGPKSHIGRHLMTSFLSMKGLTELTNVVGNWSDKRASAVARTTYTHQITAIPDHYFALVSRYYAYDPISKEMIALKDETNPIEEWQHIEQLKGSAEGSIRYPAWNGIISQEVLDYLSSYINRRI | result in GFP expression in the presence of GIB | 
2 | Flp 374: Flp (SEQ ID NO: 1) split into aa 1-374 and 375-423, fused to CIDD pair (protein, fused to CIDD pair) chain 1: MSQFDILCKTPPKVLVRQFVERFERPSGEKIASCAAELTYLCWMITHNGTAIKRATFMSYNTIISNSLSFDIVNKSLQFKYKTQKATILEASLKKLIPAWEFTIIPYNGQKHQSDITDIVSSLQLQFESSEEADKGNSHSKKMLKALLSEGESIWEITEKILNSFEYTSRFTKTKTLYQFLFLATFINCGRFSDIKNVDPKSFKLVQNKYLGVIIQCLVTETKTSVSRHIYFFSARGRIDPLVYLDEFLRNSEPVLKRVNRTGNSSSNKQEYQLLKDNLVRSYNKALKKNAPYPIFAIKNGPKSHIGRHLMTSFLSMKGLTELTNVVGNWSDKRASAVARTTYTHQITAIPDHYFALVSRYYAYDPISKEMIAL chain 2: KDETNPIEEWQHIEQLKGSAEGSIRYPAWNGIISQEVLDYLSSYINRRI | result in GFP expression in the presence of GIB | 
3 | VCre 172: VCre (SEQ ID NO: 16) split into aa 1-172 and 173-380, fused to CIDD pair (protein, split at 172/173; CIDD pair fusions lack entries) MIENQLSLLGDFSGVRPDDVKTAIQAAQKKGINVAENEQFKAAFEHLLNEFKKREERYSPNTLRRLESAWTCFVDWCLANHRHSLPATPDTVEAFFIERAEELHRNTLSVYRWAISRVHRVAGCPDPCLDIYVEDRLKAIARKKVREGEAVKQASPFNEQHLLKLTSLWYRSDKLLLRRNLALLAVAYESMLRASELANIRVSDMELAGDGTAILTIPITKTNHSGEPDTCILSQDVVSLLMDYTEAGKLDMSSDGFLFVGVSKHNTCIKPKKDKQTGEVLHKPITTKTVEGVFYSAWETLDLGRQGVKPFTAHSARVGAAQDLLKKGYNTLQIQQSGRWSSGAMVARYGRAILARDGAMAHSRVKTRSAPMQWGKDEKD |  | result in GFP expression in the presence of GIB
4 | VCre 269: VCre (SEQ ID NO: 16) split into aa 1-269 and 270-380, fused to CIDD pair (protein, split at 269/270; CIDD pair fusions lack entries) MIENQLSLLGDFSGVRPDDVKTAIQAAQKKGINVAENEQFKAAFEHLLNEFKKREERYSPNTLRRLESAWTCFVDWCLANHRHSLPATPDTVEAFFIERAEELHRNTLSVYRWAISRVHRVAGCPDPCLDIYVEDRLKAIARKKVREGEAVKQASPFNEQHLLKLTSLWYRSDKLLLRRNLALLAVAYESMLRASELANIRVSDMELAGDGTAILTIPITKTNHSGEPDTCILSQDVVSLLMDYTEAGKLDMSSDGFLFVGVSKHNTCIKPKKDKQTGEVLHKPITTKTVEGVFYSAWETLDLGRQGVKPFTAHSARVGAAQDLLKKGYNTLQIQQSGRWSSGAMVARYGRAILARDGAMAHSRVKTRSAPMQWGKDEKD |  | result in GFP expression in the presence of GIB
5 | VCre 82: VCre (SEQ ID NO: 16) split into aa 1-82 and 83-380, fused to CIDD pair (protein, split at 82/83; CIDD pair fusions lack entries) MIENQLSLLGDFSGVRPDDVKTAIQAAQKKGINVAENEQFKAAFEHLLNEFKKREERYSPNTLRRLESAWTCFVDWCLANHRHSLPATPDTVEAFFIERAEELHRNTLSVYRWAISRVHRVAGCPDPCLDIYVEDRLKAIARKKVREGEAVKQASPFNEQHLLKLTSLWYRSDKLLLRRNLALLAVAYESMLRASELANIRVSDMELAGDGTAILTIPITKTNHSGEPDTCILSQDVVSLLMDYTEAGKLDMSSDGFLFVGVSKHNTCIKPKKDKQTGEVLHKPITTKTVEGVFYSAWETLDLGRQGVKPFTAHSARVGAAQDLLKKGYNTLQIQQSGRWSSGAMVARYGRAILARDGAMAHSRVKTRSAPMQWGKDEKD |  | result in GFP expression in the presence of GIB
6 | VCre 277: VCre (SEQ ID NO: 16) split into aa 1-277 and 278-380, fused to CIDD pair (protein, split at 277/278; CIDD pair fusions lack entries) MIENQLSLLGDFSGVRPDDVKTAIQAAQKKGINVAENEQFKAAFEHLLNEFKKREERYSPNTLRRLESAWTCFVDWCLANHRHSLPATPDTVEAFFIERAEELHRNTLSVYRWAISRVHRVAGCPDPCLDIYVEDRLKAIARKKVREGEAVKQASPFNEQHLLKLTSLWYRSDKLLLRRNLALLAVAYESMLRASELANIRVSDMELAGDGTAILTIPITKTNHSGEPDTCILSQDVVSLLMDYTEAGKLDMSSDGFLFVGVSKHNTCIKPKKDKQTGEVLHKPITTKTVEGVFYSAWETLDLGRQGVKPFTAHSARVGAAQDLLKKGYNTLQIQQSGRWSSGAMVARYGRAILARDGAMAHSRVKTRSAPMQWGKDEKD |  | result in GFP expression in the presence of GIB
7 | Flp 168: Flp (SEQ ID NO: 1) split into aa 1-168 and 169-423, fused to CIDD pair (protein, fused to CIDD pair) chain 1: MSQFDILCKTPPKVLVRQFVERFERPSGEKIASCAAELTYLCWMITHNGTAIKRATFMSYNTIISNSLSFDIVNKSLQFKYKTQKATILEASLKKLIPAWEFTIIPYNGQKHQSDITDIVSSLQLQFESSEEADKGNSHSKKMLKALLSEGESIWEITEKILNSFEYT chain 2: SRFTKTKTLYQFLFLATFINCGRFSDIKNVDPKSFKLVQNKYLGVIIQCLVTETKTSVSRHIYFFSARGRIDPLVYLDEFLRNSEPVLKRVNRTGNSSSNKQEYQLLKDNLVRSYNKALKKNAPYPIFAIKNGPKSHIGRHLMTSFLSMKGLTELTNVVGNWSDKRASAVARTTYTHQITAIPDHYFALVSRYYAYDPISKEMIALKDETNPIEEWQHIEQLKGSAEGSIRYPAWNGIISQEVLDYLSSYINRRI | result in GFP expression in the presence of GIB | 
